Sequences and labels used below:
T1: acyl-ACP thioesterase ChFatB2 from Cuphea hookeriana, excluding the transit peptide (residues 129-395) (Cuphea hookeriana, UniProt Q39514 129-395)
T1 construct: acyl-ACP thioesterase ChFatB2, Cuphea hookeriana, residues 129-395, excluding the transit peptide; pCold II vector; source: E. coli BL21 (DE3), purified (Ni-NTA, Superdex 200)
T1 sequence (looked up): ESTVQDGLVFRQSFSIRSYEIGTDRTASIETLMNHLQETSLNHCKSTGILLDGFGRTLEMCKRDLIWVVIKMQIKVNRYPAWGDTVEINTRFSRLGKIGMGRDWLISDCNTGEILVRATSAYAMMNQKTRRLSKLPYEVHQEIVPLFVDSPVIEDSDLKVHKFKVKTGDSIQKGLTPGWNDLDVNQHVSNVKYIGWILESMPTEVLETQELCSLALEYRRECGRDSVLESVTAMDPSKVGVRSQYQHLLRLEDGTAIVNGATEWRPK

B1: C8-acyl acyl carrier protein 2 from Cuphea lanceolata (residues 54-137) (natural protein, UniProt P52412 54-137, looked up)
chain: QAKPETVTKVCNIVKKQLALPDDSDVSGVSKFSALGADSLDTVEIVMGLEEEFGISVEEESAQSIQTVQDAADLIEKLMEKKGH
modifications: C8 (8:0) acyl chain on the phosphopantetheine of holo-ACP (residue not given)
notes: acyl carrier protein ClACP2, Cuphea lanceolata, UniProt P52412, residues 54-137, excluding the chloroplast transit peptide; also called C8-ClACP2
B2: holo acyl carrier protein 2 from Cuphea lanceolata, excluding the chloroplast transit peptide (residues 54-137) (natural protein, UniProt P52412 54-137, looked up)
chain: B1 chain
modifications: holo form (phosphopantetheine; residue not given)
notes: acyl carrier protein ClACP2, Cuphea lanceolata, UniProt P52412, residues 54-137, excluding the chloroplast transit peptide; also called holo-ClACP2; ClACP2; source: E. coli BAP1 (chromosomal B. subtilis Sfp), purified (Ni-NTA, Superdex 200)
B3: C10-acyl acyl carrier protein 2 from Cuphea lanceolata (residues 54-137) (natural protein, UniProt P52412 54-137, looked up)
chain: B1 chain
modifications: C10 (10:0) acyl chain on the phosphopantetheine of holo-ACP (residue not given)
notes: acyl carrier protein ClACP2, Cuphea lanceolata, UniProt P52412, residues 54-137, excluding the chloroplast transit peptide; also called C10-ClACP2
B4: C8-acyl acyl carrier protein from Escherichia coli (natural protein)
chain: STIEERVKKIIGEQLGVKQEEVTNNASFVEDLGADSLDTVELVMALEEEFDTEIPDEEAEKITTVQAAIDYINGHQA
modifications: C8 (8:0) acyl chain on the phosphopantetheine of holo-ACP (residue not given)
notes: also called C8-EcACP; C8-ACP
B5: C10-acyl acyl carrier protein from Escherichia coli (natural protein)
chain: B4 chain
modifications: C10 (10:0) acyl chain on the phosphopantetheine of holo-ACP (residue not given)
notes: also called C10-EcACP
B6: holo acyl carrier protein from Escherichia coli (natural protein)
chain: B4 chain
modifications: holo form (phosphopantetheine; residue not given)
notes: also called holo-EcACP; EC-holo-ACP; source: E. coli BAP1 (chromosomal B. subtilis Sfp), purified (Ni-NTA, Superdex 200)

The target of the first assay is T1, acyl-ACP thioesterase ChFatB2 from …. The assay can be described thus: liquid crystal assay; ChFatB2 (5 μg/mL, 1.5 µL) dried on DMOAP-coated glass slides; ACP solutions (10 μg/mL, 1.5 µL) deposited on the immobilized ChFatB2, 30 min, washed with deionized water; grayscale of polarised-light images of the liquid crystal cell (Image J); semi-quantitative; holo-ACP defined as 100% binding. The conditions noted are these: both partners purified.
B1: the “grayscale of the liquid crystal image” value came out at 139 ± 6 grayscale.
As to B2, the “grayscale of the liquid crystal image” value came out at 145 ± 19.1 grayscale.
On the same count and under the same terms, to B3 belongs 96.7 ± 11 grayscale.
Take B4: the “grayscale of the liquid crystal image” value was found to be 106 ± 11.8 grayscale.
In the case of B5, the “grayscale of the liquid crystal image” value stood at 138 ± 5.3 grayscale.
On the same count and under the same terms, the figure for B6 is 156 ± 3.2 grayscale.

The next assay shares this target. Briefly: cell-based or functional assay.
Conditions: not given
On to B1, for which the “Km of ChFatB2 thioesterase activity (DTNB assay, Michaelis-Menten fit)” value is 217 µM.
The same measure, in the same setting: the figure for B3 is 263 µM; for B4 it is 350 µM.
Still for that read-out and setting: the figure for B5 is 186 µM.

For the next assay the target is unchanged. The assay can be described thus: cell-based or functional assay.
Conditions: not given
The source holds these as a separate data set.
Regarding B1, the “relative activity of ChFatB2 (thioesterase, DTNB assay)” value worked out at 0.51 µmol/min/mg.
Still for that read-out and setting: the figure for B3 is 0.33 µmol/min/mg.
Same read-out and setting: the figure for B4 is 0.07 µmol/min/mg; for B5 it is 0.17 µmol/min/mg.

The values above are taken from PMC10095102, “Conformational Changes of Acyl Carrier Protein Switch the Chain Length Preference of Acyl-ACP Thioesterase ChFatB2” (International Journal of Molecular Sciences, 2023).
